Measured values as given in patent publication US20170029530A1 (AbbVie / Abbott, published 2017).
Where “and” joins values, the source holds several entries; their conditions need not be identical. Equal entries are not always repeated. Blank lines part the entries; values can stand above or below the binder they belong to.

Key:
[1] = biological target: T1, hDPEP2 ECD with histidine tag (human, UniProt Q9H4A9 33-463); test: ELISA, coated antigen, antibody 1 ug/mL
T1 construct: also called hDPEP2-His; not shown: histidine tag
T1 sequence (Q9H4A9 33-463): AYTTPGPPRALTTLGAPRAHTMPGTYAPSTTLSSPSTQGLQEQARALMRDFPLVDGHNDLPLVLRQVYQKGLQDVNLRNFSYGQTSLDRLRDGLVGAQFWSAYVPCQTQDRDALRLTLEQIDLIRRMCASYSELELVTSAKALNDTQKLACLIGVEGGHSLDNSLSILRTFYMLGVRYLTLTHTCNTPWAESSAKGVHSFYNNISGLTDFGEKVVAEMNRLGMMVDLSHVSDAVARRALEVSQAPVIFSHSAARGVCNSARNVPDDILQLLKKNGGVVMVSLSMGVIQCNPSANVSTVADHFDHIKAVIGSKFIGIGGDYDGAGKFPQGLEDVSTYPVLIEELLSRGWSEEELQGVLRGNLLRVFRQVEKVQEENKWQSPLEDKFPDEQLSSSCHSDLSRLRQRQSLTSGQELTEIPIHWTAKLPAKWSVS
Procedure: The anti-DPEP3 antibodies were screened by ELISA for cross-reactivity with mouse, rat and cynomolgus DPEP3 and for cross reactivity to hDPEP2, the closest DPEP3 family member. ELISA was conducted as follows. Plates were coated with purified mouse, rat or cynomolgus DPEP3-His or hDPEP2-His at 0.3 μg/mL in 0.2 M carbonate-bicarbonate buffer, pH 9.4 overnight at 4° C. The protein solution was removed and the wells were blocked with 1% (w/v) BSA in PBS (PBSA), 100 μL/well for 1 hour at 37° C. Anti-DPEP3 antibody or a mouse isotype control antibody was then added at 1 μg/mL in 50 μL PBSA for 1 hour at room temperature. After washing with water, 50 μL/well HRP-labeled goat anti-mouse IgG antibody diluted 1:10,000 in PBSA was added for 30 min at room temperature. The plates were washed and developed by the addition of 40 μL/well of the TMB substrate solution (Thermo Scientific) at room temperature. An equal volume of 0.2 M H₂SO₄ was added to stop substrate development. The samples were then analyzed by spectrophotometer at OD 450. […] The cross reactivity results for exemplary DPEP3-specific antibodies can be seen in FIG. 4.

[2] = biological target: T2, hDPEP3-ECD-His (human, UniProt Q9H4B8 36-463); test: BLI ForteBio RED, 200 nM hDPEP3-His, estimated grade
T2 construct: also called hDPEP3-His; monomeric hDPEP3-His antigen; not shown: histidine tag
T2 sequence: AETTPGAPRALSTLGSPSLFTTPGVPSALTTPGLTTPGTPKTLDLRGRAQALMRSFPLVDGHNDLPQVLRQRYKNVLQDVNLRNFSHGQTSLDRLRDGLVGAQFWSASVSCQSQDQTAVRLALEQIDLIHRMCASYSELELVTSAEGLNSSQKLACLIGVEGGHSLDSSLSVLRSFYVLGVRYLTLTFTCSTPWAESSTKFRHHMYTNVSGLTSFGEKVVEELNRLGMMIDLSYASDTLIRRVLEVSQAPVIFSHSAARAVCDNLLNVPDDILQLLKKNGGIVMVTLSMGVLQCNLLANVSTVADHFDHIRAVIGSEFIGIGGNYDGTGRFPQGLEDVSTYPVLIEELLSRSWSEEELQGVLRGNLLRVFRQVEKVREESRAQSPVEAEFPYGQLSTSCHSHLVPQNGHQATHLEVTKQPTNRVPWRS
How it was run: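 Antibodies were captured on anti-mouse Fc biosensors to 0.3-1 units, then exposed to hDPEP3-His for a 4 min association and a 3 min dissociation at 1000 rpm. A control mouse IgG response was subtracted, and KD was estimated qualitatively from the curves. Sensors were regenerated with 10 mM glycine, pH 1.7.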

[3] = biological target: T3, rat DPEP3 ECD with histidine tag (rat, UniProt Q5U2X4 36-459, limits assumed); test: SPR, BIAcore 2000, antibody captured with anti-human capture kit
T3 construct: also called rDPEP3-His; ratDPEP3-His; not shown: histidine tag
T3 sequence: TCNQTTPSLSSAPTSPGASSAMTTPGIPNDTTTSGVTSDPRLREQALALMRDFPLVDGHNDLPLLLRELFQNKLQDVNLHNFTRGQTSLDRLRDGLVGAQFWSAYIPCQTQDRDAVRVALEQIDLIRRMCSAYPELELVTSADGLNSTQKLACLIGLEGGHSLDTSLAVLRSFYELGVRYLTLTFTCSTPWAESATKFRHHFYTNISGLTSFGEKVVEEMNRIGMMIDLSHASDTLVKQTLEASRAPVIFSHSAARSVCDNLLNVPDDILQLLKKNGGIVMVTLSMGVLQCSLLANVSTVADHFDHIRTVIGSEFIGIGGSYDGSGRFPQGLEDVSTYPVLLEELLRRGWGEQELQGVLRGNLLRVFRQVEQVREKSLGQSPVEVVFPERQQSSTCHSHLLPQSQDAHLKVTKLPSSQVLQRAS

[4] = biological target: T4, hDPEP1-His (human, UniProt P16444 17-385, limits assumed); test: as above
T4 construct: Neither the origin nor the limits of this protein are described; not shown: histidine tag
T4 sequence (looked up): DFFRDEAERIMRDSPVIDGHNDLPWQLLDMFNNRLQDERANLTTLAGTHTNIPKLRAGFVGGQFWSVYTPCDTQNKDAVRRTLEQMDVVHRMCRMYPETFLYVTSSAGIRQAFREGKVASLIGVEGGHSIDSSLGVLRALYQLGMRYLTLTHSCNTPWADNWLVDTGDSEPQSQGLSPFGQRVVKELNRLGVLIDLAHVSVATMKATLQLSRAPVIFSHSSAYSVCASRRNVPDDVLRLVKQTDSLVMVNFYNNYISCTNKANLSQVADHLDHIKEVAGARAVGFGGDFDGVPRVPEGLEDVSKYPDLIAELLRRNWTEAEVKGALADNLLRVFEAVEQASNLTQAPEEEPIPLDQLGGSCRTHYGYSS

[5] = biological target: T3, rat DPEP3 ECD with histidine tag; test: ELISA, coated antigen
[6] = biological target: T5, mDPEP3 (limits assumed); test: ELISA, coated antigen
T5 construct: also called mouse DPEP3-His; mouse DPEP3 ECD with histidine tag
T5 single chain: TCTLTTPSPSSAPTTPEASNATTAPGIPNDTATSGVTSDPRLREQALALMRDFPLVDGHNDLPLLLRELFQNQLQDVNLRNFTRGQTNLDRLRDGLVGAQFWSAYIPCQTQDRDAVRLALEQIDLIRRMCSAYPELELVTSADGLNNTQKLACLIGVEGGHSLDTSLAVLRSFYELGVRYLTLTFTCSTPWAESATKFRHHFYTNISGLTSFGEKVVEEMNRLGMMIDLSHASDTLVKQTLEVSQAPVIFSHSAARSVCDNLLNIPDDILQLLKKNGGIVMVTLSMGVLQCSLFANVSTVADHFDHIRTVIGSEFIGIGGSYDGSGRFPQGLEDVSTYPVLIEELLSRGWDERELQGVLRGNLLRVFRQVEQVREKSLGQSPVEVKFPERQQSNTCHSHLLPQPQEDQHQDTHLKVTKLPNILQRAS

[7] = biological target: T6, cDPEP3 (Macaca fascicularis, UniProt Q4R7M2); test: ELISA, coated antigen
T6 construct: extracellular domain; also called cynomolgus DPEP3-His; cynomolgus DPEP3 ECD with histidine tag
T6 sequence (single chain, looked up): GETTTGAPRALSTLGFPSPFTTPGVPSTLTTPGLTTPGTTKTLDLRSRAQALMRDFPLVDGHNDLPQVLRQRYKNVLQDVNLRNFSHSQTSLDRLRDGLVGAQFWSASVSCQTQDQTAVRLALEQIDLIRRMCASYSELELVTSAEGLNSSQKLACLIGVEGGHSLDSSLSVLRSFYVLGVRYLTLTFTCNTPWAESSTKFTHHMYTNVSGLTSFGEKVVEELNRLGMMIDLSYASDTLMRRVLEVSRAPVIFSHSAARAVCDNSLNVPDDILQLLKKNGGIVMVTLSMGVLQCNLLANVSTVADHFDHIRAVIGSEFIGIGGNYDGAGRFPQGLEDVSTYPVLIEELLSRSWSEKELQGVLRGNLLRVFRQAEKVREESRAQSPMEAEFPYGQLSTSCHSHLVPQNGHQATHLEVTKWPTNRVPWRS

[8] = biological target: T7, human DPEP3 (hDPEP3) protein on the cell surface (human, UniProt Q9H4B8 36-463, GPI anchor at the C-terminus after removal of the final 25 amino acids); test: flow cytometry, HEK-293T cells overexpressing hDPEP3
T7 construct: The assay field says which
T7 sequence: T2 sequence
Procedure: The isolated cells were incubated for 30 mins. with anti-DPEP3 antibodies and washed twice in PBS/2% FCS. The cells were incubated for 15 mins. with 50 μL per sample AlexaFluor-647 labeled goat-anti-mouse IgG, Fc fragment specific secondary antibody diluted 1:200 in PBS/2% FCS, washed twice with PBS/2% FCS and re-suspended in PBS/2% FCS with DAPI ([…]). The cells were analyzed on a BD FACS Canto II flow cytometer with anti-DPEP3 antibodies.

[9] = biological target: T1, hDPEP2 ECD with histidine tag; test: ELISA, coated antigen

- binding result [1]: binds
- Kd [2]: < 5 nM
B1: SC34.46 (antibody, mouse IgG1, V domains shown)
VH: QVQLQQSGTELARPGTSVKLSCKASGYTFRSYAISWVRQRTGQGLEWIGEIYPGSDKTYYNESLKGKVTLTTDKCSSTANMQLTSLTSEDSAVYFCARVHDYGSWFPYWGQGTLVTVSA
VL: DIVMSQSPSSLAVSVGEKVTMSCKSSQSLLYSKYQKNFLAWYQQKPGQSPKLLIYWASTRESGVPDRFTGSGSGTDFTLTISNVKAEDLAVYYCQQYYRYPLTFGAGTTLELK

- binding result [3]: no binding
- binding result [4]: no binding
B2: hSC34.87 humanized anti-DPEP3 antibody (antibody, human IgG1, kappa, V domains shown)
VH: QVQLVQSGAEVKKPGASVKVSCKASGYTFTSYWMLWVRQAPGQRLEWMGYIDPRNGYTEYNQKFKDRVTITRDTSASTAYMELSSLRSEDTAVYYCARGGNVAMDYWGQGTLVTVSS
VL: DIVMTQSPDSLAVSLGERATINCKSSQSLLNSRTRKNYLAWYQQKPGQPPKLLIYWASTRESGVPDRFSGSGSGTDFTLTISSLQAEDVAVYYCKQSYNLWTFGGGTKLEIKR
notes: Human IgG1/kappa

- binding result [3]: no binding
- binding result [4]: no binding
B3: hSC34.38 humanized anti-DPEP3 antibody (antibody, human IgG1, kappa, V domains shown)
VH: EVQLVQSGAEVKKPGESLKISCKGSGYSFTSYYMYWVRQMPGKGLEWMGEINPSNGGANFNERFKNQVTISADKSISTAYLQWSSLKASDTAMYYCTRGLLYYDYDRGFAYWGQGTLVTVSS
VL: DVVMTQSPLSLPVTLGQPASISCKSSQSLLYSNRRTYLNWFQQRPGQSPRRLIYLVSKLDSGVPDRFSGSGSGTDFTLKISRVEAEDVGVYYCVQGTHFPFTFGQGTKLEIKR
notes: Human IgG1/kappa

- binding result [3]: no binding
- binding result [4]: no binding
B4: hSC34.25 humanized anti-DPEP3 antibody (antibody, human IgG1, kappa, V domains shown)
VH: QVQLVQSGAEVKKPGASVKVSCKASGYTFTSYAISWVRQAPGQRLEWMGEIYPGSGETYYNEKFKGRVTITRDTSASTAYMELSSLRSEDTAVYYCARVNDYGSWFPYWGQGTLVTVSS
VL: DIVMTQSPDSLAVSLGERATINCKSSQSLLYSRYQKNYVAWYQQKPGQPPKLLIYWASTRESGVPDRFSGSGSGTDFTLTISSLQAEDVAVYYCQQYYRYPLTFGQGTKLEIKR
notes: Human IgG1/kappa

- binding result [3]: no binding
- binding result [4]: no binding
B5: hSC34.11 humanized anti-DPEP3 antibody (antibody, human IgG1, kappa, V domains shown)
VH: EVQLVQSGAEVKKPGESLKISCKGSGYSFTNYWMIWVRQMPGKGLEWMGYIDPTTDYTAYNQKFKDQVTISADKSISTAYLQWSSLKASDTAMYYCARGGNVALDFWGQGTLVTVSS
VL: DIQMTQSPSSLSASVGDRVTITCKSSQSLLNSRTRKNYLAWYQQKPGKVPKLLIYWASTRESGVPSRFSGSGSGTDFTLTISSLQPEDVATYYCKESYNLWTFGGGTKVEIKR
notes: Human IgG1/kappa; The order is confirmed for hSC34.2 and hSC34.28

- binding result [3]: no binding
- binding result [4]: no binding
B6: hSC34.28 humanized anti-DPEP3 antibody (antibody, human IgG1, kappa, V domains shown)
VH: QVQLVQSGAEVKKPGSSVKVSCKASGGTFSSYWIEWVRQAPGQGLEWMGEILPGSGNTYYNERFKDRVTITADESTSTAYMELSSLRSEDTAVYYCARRAAAYYSNPEWFAYWGQGTLVTVSS
VL: EIVLTQSPATLSLSPGERATLSCTASSSVNSFYLHWYQQKPGLAPRLLIYSTSNLASGIPDRFSGSGSGTDFTLTISRLEPEDFAVYYCHQYHRSPYTFGQGTKLEIKR
notes: Human IgG1/kappa

- binding result [1]: binds
- Kd [2]: ≥ 5 nM and ≤ 10 nM
- binding result [5]: no binding (tested: 1 ug/mL)
- binding result [6]: no binding (tested: 1 ug/mL)
- binding result [7]: no binding (tested: 1 ug/mL)
B7: SC34.11 (antibody, mouse IgG2a, V domains shown)
VH: QVQLQQSGAELAKPGASVKMSCKASGYTFTNYWMIWVKQRPGQGLEWIGYIDPTTDYTAYNQKFKDKATVTADKSSSTAYMQLNSLTSEDSAVYYCARGGNVALDFWGQGTSVTVSS
VL: DIVMSQSPSSLAVSAGEKVTMSCKSSQSLLNSRTRKNYLAWYQQKPGQSPKLLIYWASTRESGVPDRFTGSGSGTDFTLTISSVQAEDLAVYYCKESYNLWTFGGGTKLEIK

- binding result [8]: binds
- binding result [9]: no binding (tested: 1 ug/mL)
- binding result [5]: no binding (tested: 1 ug/mL)
- binding result [6]: no binding (tested: 1 ug/mL)
B8: SC34.36 (antibody, mouse IgG2a, V domains shown)
VH: QVQLQQPGSVLVRPGASVKLSCKASGYTFTSYWMHWVKQRPGQGLEWIGEISPTSGRPNYNAKFKGKATLTVDTSSSTAYVDLSSLTSEDSAVYYCAKGEGYYGKAFDYWGQGTTLTVSS
VL: DIQMTQTTSSLSASLGDRVTISCRASQDISNYLNWYQQKPDGTVKLLIYYTSRLHSGVPSRFSGSGSGTDYSLTISNLEQEDIATYFCQQGNTLPWTFGGGTKLEIK
